Results reported in patent publication US9498540B2, “Cell proliferation inhibitors and conjugates thereof” (NOVARTIS AG, priority 2013, dated 2016).

What was measured:
[1] = Aggregation of immunoconjugates by analytical size exclusion chromatography; assay type: physicochemical; settings: conjugate with trastuzumab (TBS); Superdex 200 5/150 GL run in PBS
Experimental: Aggregation was measured by analytical size exclusion chromatography (Superdex 200 5/150 GL run in PBS). It was observed that the extent of aggregation depends on the Linker-Payload and the DAR. […] Table 4 also indicates whether the linking group for each conjugate is stable or cleavable.

[2] = Average drug loading (DAR, drug to antibody ratio) from LC/MS of reduced, deglycosylated conjugates; settings: conjugate with trastuzumab (TBS); average number of payload molecules per antibody
Excerpt: The immunoconjugates prepared as described above were characterized by LC/MS, as illustrated in FIG. 1 for one immunoconjugate. […] The conjugates were characterized in terms of average drug loading for a sample (DAR, drug to antibody ratio) and aggregation (expressed in %).
The DAR value is extrapolated from LC-MS data for reduced and deglycosylated samples. […] HPLC separates the antibody into light and heavy chains, and separates the heavy chain (HC) and light chain (LC) according to the number of Linker-Payload groups per chain. Mass spectral data enables identification of the component species in the mixture, e.g., LC, LC+1, LC+2, HC, HC+1, HC+2, etc. From the average loading on the LC and HC chains, the average drug to antibody ratio (DAR) can be calculated for an ADC (see FIG. 1B). The DAR for a given conjugate sample represents the average number of drug (payload) molecules attached to a tetrameric antibody containing two light chains and two heavy chains.

SMILES | Aggregation % [1] [%] | DAR [2]
CC(C)(C)[C@H](c1nc(-c2cc(F)ccc2F)cn1Cc1ccccc1)N(CC[C@H](N)CF)C(=O)CN [Compound 1] | 75.8 | 5
CC(C)(C)[C@H](c1nc(-c2cc(F)ccc2F)cn1Cc1ccccc1)N(CC[C@H](N)CF)C(=O)CO [Compound 2] | 43.8 | 4.2
C[C@@H]1CN(C(=O)N(CCCN)[C@@H](c2nc(-c3cc(F)ccc3F)nn2Cc2ccccc2)C(C)(C)C)C[C@H](C)O1 [Compound 3] | 52.5 | 5.4
CNC(=O)N(CC[C@H]1COCCN1)[C@@H](c1nc(-c2cc(F)ccc2F)cn1Cc1ccccc1)C(C)(C)C [Compound 4] | 72.9 | 4.8
CC(C)(C)[C@H](c1nc(-c2cc(F)ccc2F)cn1Cc1ccccc1)N(CC[C@H]1COCCN1)C(=O)CO [Compound 5] | 48.7 | 5.4
CC(C)(C)[C@H](c1nc(-c2cc(F)ccc2F)cn1Cc1ccccc1)N(CC[C@@H]1COCCN1)C(=O)CO [Compound 6] | 67.2 | 3
C[C@H](O)C(=O)N(CCCN)[C@@H](c1nc(-c2cc(F)ccc2F)nn1Cc1ccccc1)C(C)(C)C [Compound 7] | 44.4 | 2.7
C[C@H](O)C(=O)N(CC[C@@H](N)CF)[C@@H](c1nc(-c2cc(F)ccc2F)nn1Cc1ccccc1)C(C)(C)C [Compound 8] | 1.4 | 3.2
CSCCC(=O)N(C[C@@H]1CNC[C@@H]1F)[C@@H](c1nc(-c2cc(F)ccc2F)cn1Cc1cccc(F)c1)C(C)(C)C [Compound 9] | 84.9 | 6
CC(C)(C)[C@H](c1nc(-c2cc(F)ccc2F)nn1Cc1ccccc1)N(CC[C@H](N)CF)C(=O)N1CCSCC1 [Compound 10] | 47 | 5
C[C@H](O)C(=O)N(CC[C@H](N)CF)[C@@H](c1nc(-c2cc(F)ccc2F)cn1CC1CCOCC1)C(C)(C)C [Compound 11] | 4 | 4
C[C@H](O)C(=O)N(C[C@@H]1CNC[C@@H]1F)[C@@H](c1nc(-c2cc(F)ccc2F)cn1Cc1ccccc1)C1CCOCC1 [Compound 12] | 4.7 | 5
COC(C)(C)[C@H](c1nc(-c2cc(Cl)ccc2F)cn1Cc1cccc(F)c1)N(C[C@@H]1CN[C@H](CF)C1)C(=O)[C@@H]1CCCO1 [Compound 13] | 0.7 | 5.8
C[C@H](O)C(=O)N(C[C@@H]1CNC[C@@H]1F)[C@@H](c1nc(-c2cc(F)ccc2F)cn1Cc1cccc(F)c1)C(C)(C)C [Compound 14] | 1.5 | 2.8
O=C(CCS)N(C[C@@H]1CNC[C@@H]1F)[C@@H](c1nc(-c2cc(F)ccc2F)cn1Cc1ccccc1)C1CCOCC1 [Compound 15] | 3.5 | 3.7
CC(C)(C)[C@H](c1nc(-c2cc(F)ccc2F)cn1Cc1cccc(F)c1)N(C[C@@H]1CNC[C@@H]1F)C(=O)CSCCN [Compound 16] | 20.4 | 7.4
C[C@@H](CO)NC(=O)N(C[C@@H]1CNC[C@@H]1F)[C@@H](c1nc(-c2cc(F)ccc2F)cn1Cc1ccccc1)C1CCOCC1 [Compound 17] | 55 | 5.8
NCCSCC(=O)N(C[C@@H]1CNC[C@@H]1F)[C@@H](c1nc(-c2cc(F)ccc2F)cn1Cc1ccccc1)C1CCOCC1 [Compound 18] | 58.4 | 3
C[C@@H](CN)NC(=O)N(C[C@@H]1CNC[C@@H]1F)[C@@H](c1nc(-c2cc(F)ccc2F)cn1Cc1ccccc1)C1CCOCC1 [Compound 19] | 74.6 | 4.7
C[C@H](O)C(=O)N(CCCN)[C@@H](c1nc(-c2cc(F)ccc2F)cn1Cc1ccccc1)C(C)(C)C [Compound 20] | 63.5 | 5.2
CC(C)(C)[C@H](c1nc(-c2cc(F)ccc2F)cn1Cc1ccccc1)N(C[C@@H](F)CN)C(=O)N1CCN(S(C)(=O)=O)CC1 [Compound 21] | 39.7 | 4.7
CC(C)(C)[C@H](c1nc(-c2cc(F)ccc2F)cn1Cc1ccccc1)N(CC[C@H](N)CF)C(=O)NO [Compound 22] | 84.5 | 6
N[C@H](CF)CCN(C(=O)CO)[C@@H](c1nc(-c2cc(F)ccc2F)cn1Cc1ccccc1)C1CCOCC1 [Compound 23] | 66.8 | 3.1
C[C@H](O)C(=O)N(CC[C@H](N)CF)[C@H](c1nc(-c2cc(F)ccc2F)cn1Cc1ccccc1)C1CCS(=O)(=O)CC1 [Compound 24] | 54.2 | 1.2

SMILES | Aggregation % [1] [%] | DAR [2]
O=C(CI)N(C[C@@H]1CNC[C@@H]1F)[C@@H](c1nc(-c2cc(F)ccc2F)cn1Cc1ccccc1)C1CCOCC1 [Compound 25] | 60.8 | 2.2
C[C@@H]1CN(C(=O)N(C[C@@H]2CNC[C@@H]2F)[C@@H](c2nc(-c3cc(F)ccc3F)nn2Cc2cccc(F)c2)C(C)(C)C)C[C@H](C)O1 [Compound 26] | 33.5 | 2.6
CNC(=O)N(CC[C@@H](N)CF)[C@@H](c1nc(-c2cc(F)ccc2F)cn1Cc1ccccc1)C(C)(C)C [Compound 27] | 12.1 | 3.4
CC(C)(C)[C@H](c1nc(-c2cc(F)ccc2F)nn1Cc1ccccc1)N(CCCN)C(=O)N1CCC[C@H]1CO [Compound 28] | 63.6 | 3.6
C[C@H](O)C(=O)N(CC[C@@H](N)CF)[C@@H](c1nc(-c2cc(F)ccc2F)cn1Cc1ccccc1)C(C)(C)C [Compound 29] | 2.9 | 2.8
CC(C)(C)[C@H](c1nc(-c2cc(F)ccc2F)cn1Cc1ccccc1)N(CCC1(N)CC1)C(=O)[C@@H]1CCCO1 [Compound 30] | 2.5 | 3.9
CC(C)(C)OC(=O)N1C[C@@H](CN(C(=O)CI)[C@@H](c2nc(-c3cc(F)ccc3F)cn2Cc2cccc(F)c2)C(C)(C)C)[C@@H](F)C1 [Compound 31] | 10.6 | 5.8
C[C@H](O)C(=O)N(C[C@H]1CCNC1)[C@@H](c1nc(-c2cc(F)ccc2F)cn1Cc1ccccc1)C1CCOCC1 [Compound 32] | 1.4 | 5.2
CC(C)(C)[C@@H](NC[C@@H]1CNC[C@@H]1F)c1nc(-c2cc(F)ccc2F)nn1Cc1cccc(F)c1 [Compound 33] | 29.8 | 6.3
C[C@H](O)C(=O)N(CC[C@H](N)CF)[C@@H](c1nc(-c2cc(F)ccc2F)cn1CC1(C)COC1)C(C)(C)C [Compound 34] | 50.5 | 4.4
C[C@H](O)C(=O)N(CC[C@@H](C)N)[C@@H](c1nc(-c2cc(F)ccc2F)cn1Cc1ccccc1)C(C)(C)C [Compound 35] | 44.3 | 3
CC(C)(C)[C@H](c1nc(-c2cc(F)ccc2F)cn1Cc1ccccc1)N(CC[C@H]1COCCN1)C(=O)c1cccnc1 [Compound 36] | 40 | 2.6
C[C@H](O)C(=O)N(CC[C@H](N)CF)[C@@H](c1nc(-c2cc(F)ccc2F)cn1Cc1ccccc1)C1CCS(=O)(=O)CC1 [Compound 37] | 68 | 5.6
C[C@H](O)C(=O)N(C[C@@H]1CNC[C@@H]1F)[C@@H](c1nc(-c2cc(F)ccc2F)cn1Cc1ccccc1)C1CCS(=O)(=O)CC1 [Compound 38] | 67.2 | 5.8
CSCCC(=O)N(C[C@@H]1CNC[C@@H]1F)[C@@H](c1nc(-c2cc(F)ccc2F)cn1Cc1ccccc1)C1CCOCC1 [Compound 39] | 68.5 | 3.2
CNC(=O)N(C[C@@H]1CNC[C@@H]1F)[C@@H](c1nc(-c2cc(F)ccc2F)cn1Cc1cccc(F)c1)C(C)(C)C [Compound 40] | 9.3 | 4
COC(=O)N(C[C@@H](F)CN)[C@@H](c1nc(-c2cc(F)ccc2F)cn1Cc1ccccc1)C(C)(C)C [Compound 41] | 23.8 | 4.5
CC(C)(C)[C@H](c1nc(-c2cc(F)ccc2F)cn1Cc1ccccc1)N(CC[C@H](N)CF)C(=O)N1CCN(S(C)(=O)=O)CC1 [Compound 42] | 2.4 | 6
CC(C)(C)[C@H](c1nc(-c2cc(F)ccc2F)nn1Cc1ccccc1)N(CC[C@@H](N)CF)C(=O)N1CCSCC1 [Compound 43] | 7.7 | 6.1
CC(C)(C)[C@H](c1nc(-c2cc(F)ccc2F)nn1Cc1ccccc1)N(CCCN)C(=O)N1CCN(S(C)(=O)=O)CC1 [Compound 44] | 41 | 4.8
CC(C)(C)[C@@H](NC(=O)c1csc(CN)n1)c1nc(-c2cc(F)ccc2F)cn1Cc1ccccc1 [Compound 45] | 22 | 4.8
C[C@H](O)C(=O)N(CC[C@H](N)CF)[C@@H](c1nc(-c2cc(F)ccc2F)cn1Cc1ccccc1)C1CCOCC1 [Compound 46] | 74.1 | 4.7
C[C@H](O)C(=O)N(C[C@@H]1CNC[C@@H]1F)[C@H](c1nc(-c2cc(F)ccc2F)cn1Cc1ccccc1)C1CCS(=O)(=O)CC1 [Compound 47] | 65.2 | 5.1
